Test [1] concerns the target Recombinant human TGF-β1 (human) (UniProt P01137). The experiment in a line: SPR, TGF-β1 coupled, rearrangement model, Kdiss#1. On the technique in general: In SPR one partner is held on a chip, and binding of the other changes the refractive index at the surface.
Test [2] shares this target. The experiment in a line: SPR, TGF-β1 coupled, rearrangement model, rearrangement step.
For test [3] the target is unchanged. Briefly: SPR, TGF-β1 coupled, rearrangement model, Kdapp.
Test [4] has the same target. Briefly: SPR, TGF-β1 coupled, rearrangement model, kass#1.
Test [5] shares this target. The experiment in a line: SPR, TGF-β1 coupled, rearrangement model, Kd 1 (initial binding step).

These results are taken from patent US20070154994A1.

In general, koff refers to the first-order rate constant of dissociation. What is called kon is a measure of how fast the partners come together.

Chain of Recombinant human TGF-β1 (human) (P01137 279-390 limits assumed): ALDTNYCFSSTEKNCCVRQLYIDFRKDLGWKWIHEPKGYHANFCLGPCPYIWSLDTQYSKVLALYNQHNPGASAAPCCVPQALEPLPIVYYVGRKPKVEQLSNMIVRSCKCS

B1: untagged CtermTβRIIIED (receptor, UniProt P26342 576-782, looked up)
chain: RQLRNPSGFQGQLDGNATFNMELYNTDLFLVPSPGVFSVAENEHVYVEVSVTKADQDLGFAIQTCFLSPYSNPDRMSDYTIIENICPKDDSVKFYSSKRVHFPIPHAEVDKKRFSFLFKSVFNTSLLFLHCELTLCSRKKGSLKLPRCVTPDDACTSLDATMIWTMMQNKKTFTKPLAVVLQVDYKENVPSTKDSSPIPPPPPQIFH
For the molecule B1, the koff in test [1] amounted to 0.0535 s⁻¹. Besides, in test [2], the kass#2 was 0.0029 s⁻¹, the kd 2 (no unit) is 0.73 no unit and the kdiss#2 was 0.00217 s⁻¹. In addition, the Kd in test [3] is 302 nM. In addition, the kon in test [4] was determined as 75000 M⁻¹ s⁻¹. The Kd in test [5] is 713 nM.
